Test results published in PMC3305447, “A Peptidoglycan Fragment Triggers β-lactam Resistance in Bacillus licheniformis” (PLoS Pathogens, 2012).

Legend:
MecI [1] = biological target: T1, MecI (Staphylococcus aureus, UniProt P68261); assay: NMR titration, 1H-15N SOFAST-HMQC chemical shifts; type: binding
T1 construct: full-length with C-terminal His6 (pET22b), recombinant, purified; homodimer; 15N-labelled for NMR

MecI [2] = biological target: T1, MecI; assay: agarose-gel EMSA, dissociation of repressor-operator DNA complex; type: binding
Target sequence in this assay (P68261 1-122): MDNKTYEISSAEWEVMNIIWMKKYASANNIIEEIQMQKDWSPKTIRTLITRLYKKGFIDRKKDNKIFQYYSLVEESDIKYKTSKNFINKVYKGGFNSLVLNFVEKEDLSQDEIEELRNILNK

[3] = biological target: Bacillus licheniformis 749/I BlaI repressor (BlaI-His) (Bacillus licheniformis 749/I) (UniProt P06555)
Sequence of Bacillus licheniformis 749/I BlaI repressor (BlaI-His) (Bacillus licheniformis 749/I) (P06555 whole entry): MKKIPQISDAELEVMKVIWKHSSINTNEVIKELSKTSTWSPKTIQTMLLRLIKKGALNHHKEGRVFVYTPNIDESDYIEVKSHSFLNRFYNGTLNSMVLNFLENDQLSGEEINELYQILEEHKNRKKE

[4] = biological target: Staphylococcus aureus MecI repressor (MecI-His) (Staphylococcus aureus ATCC 43300) (UniProt P68261); assay: native gel or EMSA
Sequence of Staphylococcus aureus MecI repressor (MecI-His) (Staphylococcus aureus ATCC 43300) (P68261 whole entry): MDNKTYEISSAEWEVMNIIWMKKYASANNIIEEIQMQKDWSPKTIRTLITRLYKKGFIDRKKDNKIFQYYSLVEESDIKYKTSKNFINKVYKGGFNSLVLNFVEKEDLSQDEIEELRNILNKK

[5] = biological target: Staphylococcus aureus MecI repressor (MecI-His) (Staphylococcus aureus ATCC 43300) (UniProt P68261)

Compound: NCCCC[C@H](NC(=O)CC[C@@H](N)C(=O)O)C(=O)O [dipeptide 2, γ-D-Glu-L-Lys]
- Kd (MecI [1]): 8000 ± 2000 µM
- IC50 (MecI [2]): ~2000 µM

Compound: γ-D-Glu-m-A2pm dipeptide
- concentration of dipeptide allowing the displacement of 50% of bound BlaI from its nucleic operator (agarose gel EMSA titration, 10 to 50 nmol dipeptide in 20 µl) [3]: 2 mM

Compound: γ-D-Glu-L-Lys dipeptide
- Kd [4]: 2000 µM
- concentration of dipeptide allowing the displacement of 50% of bound MecI from its nucleic operator (agarose gel EMSA titration, 10 to 50 nmol dipeptide in 20 µl) [5]: 2 mM
